Patent US20210292392A1

Key:
Assay in all cases: cell-based or functional assay
[1] = target: full length S protein of SARS-CoV-2 (on pseudovirus) (SARS-CoV-2) (UniProt P0DTC2)
[2] = target: spike (S) protein of live SARS-CoV-2 (SARS-CoV-2) (UniProt P0DTC2)
[3] = target: spike protein of live SARS-CoV-2 (SARS-CoV-2) (UniProt P0DTC2)
[4] = target: spike protein on live SARS-CoV-2 (SARS-CoV-2) (UniProt P0DTC2)

Substance P2C-1F11 (antibody) has a Pseudovirus IC50 [1] of 0.0286 µg/mL, a Pseudovirus IC80 [1] of 0.119 µg/mL and a Live virus IC50 [2] of 0.0323 µg/mL. For the same substance, the Live virus IC80 [2] was 0.178 µg/mL, the Live virus IC50 [3] was 0.0323 µg/mL and the Live virus IC80 [3] was 0.178 µg/mL. The IC50, live SARS-CoV-2 focus reduction neutralization test (FRNT) [4] was 0.03 µg/mL.
